Assay results published in the supplement of paper PMC10065799, “High-throughput profiling of sequence recognition by tyrosine kinases and SH2 domains using bacterial peptide display” (eLife, 2023).

Assays:
[1] = test system: AncSZ; test: phosphorylation enrichment, bacterial display (enrichment ratio); higher = better substrate or ligand; peptides without Tyr show the background
[2] = target: EPHB1 (UniProt P54762); test: as above
[3] = target: EPHB2 (UniProt P29323); test: as above
[4] = target: FGFR1 (UniProt P11362); test: as above
[5] = target: FGFR3 (UniProt P22607); test: as above
[6] = test system: Fer (mouse); test: as above
[7] = target: Fes (UniProt P07332); test: as above
[8] = target: Fyn (UniProt P06241); test: as above
[9] = target: Hck (UniProt P08631); test: as above
[10] = target: Jak2 (UniProt O60674); test: as above
[11] = target: MERTK (UniProt Q12866); test: as above
[12] = test system: c-Abl (mouse); test: as above
[13] = test system: c-Src; test: as above
[14] = target: Grb2 SH2 (UniProt P62993); test: SH2 binding enrichment of the phosphorylated peptide, bacterial display (enrichment ratio); higher = better substrate or ligand; peptides without Tyr show the background
[15] = target: SHP2-C SH2; test: as above
[16] = target: c-Src SH2; test: as above
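Throughout, for SH2 binding enrichment of the phosphorylated peptide, bacterial display: peptide library displayed on the E. coli surface as eCPX fusions, selected cells deep-sequenced, score is each peptide's frequency after selection divided by its frequency in the input.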
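Throughout, for phosphorylation enrichment, bacterial display: 11-residue human phosphosite peptides and single-mutation variants displayed on the E. coli surface, counted by deep sequencing, each peptide's frequency after selection divided by its frequency in the unselected input library; frequency after pTyr selection over input frequency; kinase dosed for 20-30% of maximal phosphorylation in three min.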

Chain of Fyn (P06241 whole entry, looked up): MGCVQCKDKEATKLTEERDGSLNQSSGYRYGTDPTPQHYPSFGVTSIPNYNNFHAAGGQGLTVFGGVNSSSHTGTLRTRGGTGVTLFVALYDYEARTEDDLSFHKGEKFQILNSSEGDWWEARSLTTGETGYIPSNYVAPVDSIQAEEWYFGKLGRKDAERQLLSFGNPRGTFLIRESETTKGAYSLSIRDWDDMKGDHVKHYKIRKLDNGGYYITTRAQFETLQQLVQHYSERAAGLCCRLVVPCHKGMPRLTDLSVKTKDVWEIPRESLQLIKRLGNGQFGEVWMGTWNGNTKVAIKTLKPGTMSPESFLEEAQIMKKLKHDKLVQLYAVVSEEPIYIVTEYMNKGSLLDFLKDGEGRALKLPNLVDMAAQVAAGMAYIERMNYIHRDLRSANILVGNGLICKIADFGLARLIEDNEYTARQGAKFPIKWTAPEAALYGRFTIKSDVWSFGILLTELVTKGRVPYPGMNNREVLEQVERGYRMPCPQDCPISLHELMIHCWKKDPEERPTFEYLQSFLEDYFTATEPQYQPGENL
Chain of Hck (P08631 whole entry, looked up): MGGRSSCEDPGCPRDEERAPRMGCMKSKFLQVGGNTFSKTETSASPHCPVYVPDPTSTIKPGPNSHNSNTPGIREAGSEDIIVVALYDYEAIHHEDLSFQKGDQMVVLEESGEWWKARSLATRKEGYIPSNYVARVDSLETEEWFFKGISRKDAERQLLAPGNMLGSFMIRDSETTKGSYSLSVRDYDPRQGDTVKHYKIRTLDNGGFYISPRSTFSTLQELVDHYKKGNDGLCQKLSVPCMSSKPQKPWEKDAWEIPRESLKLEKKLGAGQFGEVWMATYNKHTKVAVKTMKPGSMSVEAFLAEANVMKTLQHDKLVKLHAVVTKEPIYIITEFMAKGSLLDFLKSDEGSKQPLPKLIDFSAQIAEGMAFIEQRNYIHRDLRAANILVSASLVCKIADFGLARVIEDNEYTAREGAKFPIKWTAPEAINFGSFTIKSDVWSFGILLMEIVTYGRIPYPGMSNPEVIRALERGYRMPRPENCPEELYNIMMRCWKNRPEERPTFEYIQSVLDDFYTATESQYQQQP
Chain of EPHB2 (P29323 whole entry, looked up): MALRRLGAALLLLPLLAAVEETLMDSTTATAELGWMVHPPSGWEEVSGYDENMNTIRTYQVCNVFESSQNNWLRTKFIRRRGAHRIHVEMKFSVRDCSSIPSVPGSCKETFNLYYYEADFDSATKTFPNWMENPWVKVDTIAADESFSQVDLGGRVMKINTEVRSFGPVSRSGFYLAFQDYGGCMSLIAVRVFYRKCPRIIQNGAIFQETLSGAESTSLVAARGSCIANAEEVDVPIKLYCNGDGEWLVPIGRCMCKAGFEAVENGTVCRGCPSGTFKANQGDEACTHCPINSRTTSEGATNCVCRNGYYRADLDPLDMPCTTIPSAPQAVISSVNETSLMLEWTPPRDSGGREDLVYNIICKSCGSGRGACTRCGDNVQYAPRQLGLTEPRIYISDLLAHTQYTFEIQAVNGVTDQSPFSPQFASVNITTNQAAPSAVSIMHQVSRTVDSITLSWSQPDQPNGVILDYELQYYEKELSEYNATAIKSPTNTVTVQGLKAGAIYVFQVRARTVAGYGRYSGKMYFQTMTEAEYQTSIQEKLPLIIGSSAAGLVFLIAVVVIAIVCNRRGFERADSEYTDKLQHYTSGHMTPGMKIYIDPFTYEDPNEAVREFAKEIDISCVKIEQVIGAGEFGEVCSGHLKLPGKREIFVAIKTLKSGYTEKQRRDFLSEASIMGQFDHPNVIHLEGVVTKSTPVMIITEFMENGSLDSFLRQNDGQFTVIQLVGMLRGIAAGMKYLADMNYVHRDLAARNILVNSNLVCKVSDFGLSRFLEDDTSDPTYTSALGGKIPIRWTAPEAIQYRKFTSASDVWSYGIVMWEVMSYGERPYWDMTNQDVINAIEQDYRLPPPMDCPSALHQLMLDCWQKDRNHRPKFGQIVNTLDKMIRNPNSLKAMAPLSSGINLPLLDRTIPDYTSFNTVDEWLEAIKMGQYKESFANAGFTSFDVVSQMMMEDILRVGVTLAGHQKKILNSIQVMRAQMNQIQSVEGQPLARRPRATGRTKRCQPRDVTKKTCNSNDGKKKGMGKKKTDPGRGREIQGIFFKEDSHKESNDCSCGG
Chain of MERTK (Q12866 whole entry, looked up): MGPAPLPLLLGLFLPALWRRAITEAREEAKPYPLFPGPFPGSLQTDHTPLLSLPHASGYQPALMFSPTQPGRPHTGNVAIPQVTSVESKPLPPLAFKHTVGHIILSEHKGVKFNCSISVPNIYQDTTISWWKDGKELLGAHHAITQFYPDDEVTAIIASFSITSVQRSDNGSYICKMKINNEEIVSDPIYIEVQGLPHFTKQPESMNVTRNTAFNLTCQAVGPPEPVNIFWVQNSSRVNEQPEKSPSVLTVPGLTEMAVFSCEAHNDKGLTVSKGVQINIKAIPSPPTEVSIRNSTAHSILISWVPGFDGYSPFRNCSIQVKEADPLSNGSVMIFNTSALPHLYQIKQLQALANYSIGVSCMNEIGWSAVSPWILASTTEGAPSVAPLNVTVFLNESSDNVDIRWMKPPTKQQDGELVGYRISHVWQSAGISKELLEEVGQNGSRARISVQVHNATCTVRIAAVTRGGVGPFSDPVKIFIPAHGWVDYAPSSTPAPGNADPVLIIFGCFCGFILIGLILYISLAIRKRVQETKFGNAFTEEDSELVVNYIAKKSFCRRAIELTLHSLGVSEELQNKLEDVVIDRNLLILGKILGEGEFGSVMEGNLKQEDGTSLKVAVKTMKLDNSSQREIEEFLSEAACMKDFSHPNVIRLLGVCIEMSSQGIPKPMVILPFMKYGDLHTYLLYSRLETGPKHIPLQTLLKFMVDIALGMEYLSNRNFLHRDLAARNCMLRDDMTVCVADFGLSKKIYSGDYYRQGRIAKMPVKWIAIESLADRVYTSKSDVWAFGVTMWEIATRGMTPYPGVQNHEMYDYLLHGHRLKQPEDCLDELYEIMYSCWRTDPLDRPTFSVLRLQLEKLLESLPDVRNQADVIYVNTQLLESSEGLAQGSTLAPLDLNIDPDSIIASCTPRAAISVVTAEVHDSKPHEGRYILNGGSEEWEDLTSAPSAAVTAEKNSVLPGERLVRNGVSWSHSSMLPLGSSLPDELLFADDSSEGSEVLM
Chain of FGFR1 (P11362 whole entry, looked up): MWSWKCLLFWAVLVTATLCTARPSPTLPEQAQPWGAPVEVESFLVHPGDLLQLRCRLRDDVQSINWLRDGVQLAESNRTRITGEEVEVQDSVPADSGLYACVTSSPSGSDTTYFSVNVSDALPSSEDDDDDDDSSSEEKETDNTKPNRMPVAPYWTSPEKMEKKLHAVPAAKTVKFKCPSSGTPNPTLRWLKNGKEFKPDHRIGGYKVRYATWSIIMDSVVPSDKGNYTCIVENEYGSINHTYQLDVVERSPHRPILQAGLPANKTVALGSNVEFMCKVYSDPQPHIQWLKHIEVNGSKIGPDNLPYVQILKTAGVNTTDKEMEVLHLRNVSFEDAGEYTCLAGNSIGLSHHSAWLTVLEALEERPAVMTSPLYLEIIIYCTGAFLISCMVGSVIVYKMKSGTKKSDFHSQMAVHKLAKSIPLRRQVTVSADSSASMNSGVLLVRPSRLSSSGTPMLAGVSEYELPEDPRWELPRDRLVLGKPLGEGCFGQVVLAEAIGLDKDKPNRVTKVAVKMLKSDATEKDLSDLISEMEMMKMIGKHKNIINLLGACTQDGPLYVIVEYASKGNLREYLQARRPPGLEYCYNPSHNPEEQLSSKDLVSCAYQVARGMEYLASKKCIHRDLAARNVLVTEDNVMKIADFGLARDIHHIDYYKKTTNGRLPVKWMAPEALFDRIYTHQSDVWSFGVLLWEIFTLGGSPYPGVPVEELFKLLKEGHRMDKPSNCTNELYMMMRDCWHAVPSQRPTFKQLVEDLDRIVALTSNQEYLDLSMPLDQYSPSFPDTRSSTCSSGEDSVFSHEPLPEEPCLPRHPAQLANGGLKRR
Chain of Fes (P07332 whole entry, looked up): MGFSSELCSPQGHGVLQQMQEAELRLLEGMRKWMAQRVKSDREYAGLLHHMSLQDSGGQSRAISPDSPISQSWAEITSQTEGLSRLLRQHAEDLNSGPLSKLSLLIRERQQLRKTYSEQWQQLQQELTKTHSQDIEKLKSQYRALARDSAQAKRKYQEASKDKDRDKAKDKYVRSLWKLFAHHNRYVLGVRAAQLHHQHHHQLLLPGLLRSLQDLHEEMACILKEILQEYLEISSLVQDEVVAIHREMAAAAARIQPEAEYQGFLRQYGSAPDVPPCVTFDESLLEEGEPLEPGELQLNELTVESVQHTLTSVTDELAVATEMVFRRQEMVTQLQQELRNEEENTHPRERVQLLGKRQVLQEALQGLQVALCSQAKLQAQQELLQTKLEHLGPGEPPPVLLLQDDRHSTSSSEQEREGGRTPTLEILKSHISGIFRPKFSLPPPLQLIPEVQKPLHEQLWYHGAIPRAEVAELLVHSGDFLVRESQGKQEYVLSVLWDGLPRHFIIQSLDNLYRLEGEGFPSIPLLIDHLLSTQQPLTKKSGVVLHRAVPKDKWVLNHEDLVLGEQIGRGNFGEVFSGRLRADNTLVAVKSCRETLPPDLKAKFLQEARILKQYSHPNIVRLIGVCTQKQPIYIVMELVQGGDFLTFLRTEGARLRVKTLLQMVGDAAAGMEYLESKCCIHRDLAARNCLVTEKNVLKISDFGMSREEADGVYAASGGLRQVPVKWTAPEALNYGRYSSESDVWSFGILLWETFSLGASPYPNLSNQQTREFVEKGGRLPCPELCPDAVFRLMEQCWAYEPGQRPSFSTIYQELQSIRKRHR
Chain of Grb2 SH2 (P62993 whole entry, looked up): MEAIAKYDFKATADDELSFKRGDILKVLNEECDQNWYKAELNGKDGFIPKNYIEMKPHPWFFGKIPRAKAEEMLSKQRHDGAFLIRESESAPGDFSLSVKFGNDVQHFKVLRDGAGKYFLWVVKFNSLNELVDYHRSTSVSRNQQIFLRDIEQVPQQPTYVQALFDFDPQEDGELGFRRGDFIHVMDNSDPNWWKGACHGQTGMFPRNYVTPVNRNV

Sequence	phosphorylation enrichment [1]	phosphorylation enrichment [2]	phosphorylation enrichment [3]	phosphorylation enrichment [4]	phosphorylation enrichment [5]	phosphorylation enrichment [6]	phosphorylation enrichment [7]	phosphorylation enrichment [8]	phosphorylation enrichment [9]	phosphorylation enrichment [10]	phosphorylation enrichment [11]	phosphorylation enrichment [12]	phosphorylation enrichment [13]	SH2 binding enrichment [14]	SH2 binding enrichment [15]	SH2 binding enrichment [16]
HAEERYGKELV [PSTPIP1_Y53_Q48H]	1.26	0.881	0.806	1.09	1.02	0.732	1.26	0.614	1.02	1.06	0.382	0.688	0.569	0.755	0.7	0.362
HAVFVYDICHV [TWNK_Y508_YF]	1.88	1.49	1.36	0.631	1.05	3.38	2.02	4.27	2.8	1.65	2.62	1.47	4.61	0.895	1.27	0.531
HEVHIYENSGA [ARPC1B_Y35_K37N]	1.44	1.38	1.28	0.703	0.892	1.26	2.27	1.04	1.62	1.31	0.826	1.32	0.865	12.4	1.03	6.64
HFVDEYDQTIE [KRAS_Y32_P34Q]	2.79	1.1	1.07	0.93	0.852	0.667	2.04	0.897	0.835	2.14	0.804	1.01	0.935	0.973	0.62	0.592
HGEAYYSEVKP [PAK5_Y182]	2.68	2.27	1.8	3.13	1.93	11.2	1.62	1.96	3.85	1.7	11.2	1.79	2.99	0.769	0.795	2.44
HHIDYYKETTN [FGFR1_Y654_K656E]	1.13	1.03	0.814	1.09	0.935	0.893	1.39	0.646	0.799	0.979	0.866	0.878	0.997	0.985	0.996	1.47
HIAKGYRRDNP [HARS1_Y156_V155G]	0.731	0.363	0.429	0.33	0.326	0.438	0.539	0.427	0.572	0.409	0.399	0.543	0.451	0.456	0.43	0.213
HICTAYKLVLA [DHCR24_Y190_E191K]	1.88	1.49	1.53	2.66	2.2	1.52	2.86	1.3	1.47	1.88	0.832	0.969	1.34	0.867	0.56	0.45
HISGVYKLPPD [ANGPTL7_Y145_R140H]	1.79	0.556	0.6	0.585	0.67	0.618	1.33	3.26	0.718	1	0.725	0.697	2.3	0.957	0.925	0.459
HKANEYYPVVL [ADAMTS18_Y764]	2.86	1.47	1.45	23.2	15.7	2.6	1.22	0.956	1.95	9.18	1.13	2.49	1.65	0.902	0.907	0.985
HKNNNYEPSLF [BRCA2_Y57_N60S]	1.13	0.689	0.766	0.793	0.891	0.791	1	0.652	0.563	0.897	0.654	0.659	0.658	0.931	0.72	0.866
HMEAVYIDIAD [PITPNA_Y140_V136M]	3.91	9.76	5.08	13.6	10.2	8.49	2.85	3.86	2.85	2.26	1.43	1.06	3.62	1.23	0.847	0.696
HNGVSYYINLC [IGF2R_Y2024]	1.43	0.805	0.541	0.605	1.1	0.577	1.5	0.581	0.597	1.35	0.513	1.15	0.419	1.14	1	0.431
HNLDYYKETTN [FGFR3_Y648_K650E]	1.25	0.633	0.857	2.08	2.12	0.766	1.06	0.597	0.734	1.01	0.553	0.788	0.47	1.24	0.874	0.732
HNLNYYKKTTN [FGFR3_Y648_D646N]	0.791	0.337	0.361	0.468	0.531	0.461	0.507	0.491	0.258	0.648	0.479	0.554	0.429	0.738	0.683	0.479
HPAGNYSLSSV [ARFGAP3_Y473_Q468H]	0.49	0.706	0.58	0.562	0.458	0.619	0.666	0.409	0.553	0.672	0.625	0.867	0.425	0.804	0.79	0.603
HRDSSYFWEIE [RAF1_Y340_Q335H_YF]	1.34	0.59	0.629	1.02	0.984	0.497	1.8	0.579	0.638	2.02	0.628	1.13	0.888	0.856	0.52	0.802
HRGFLYLAIEF [TEK_Y899_Y897F_YF]	1.49	0.765	0.539	0.515	1.02	0.968	1.67	0.352	0.627	1.7	0.711	1.52	0.687	1.13	0.819	0.556
HSPLRYTSILT [OR51B6_Y130_R125H]	0.915	0.782	0.602	1.19	0.849	0.892	1.4	0.823	0.683	0.807	0.634	0.547	0.574	1.21	9.46	5.39
HSVLNYGVCVC [JAK2_Y613_L609S]	0.91	0.87	0.905	0.674	0.84	0.692	1.57	0.564	0.62	1.17	0.482	0.925	0.595	0.853	0.929	0.584
HTLQLYRCREE [ALPK3_Y342]	0.953	0.499	0.588	0.898	0.7	0.575	1.03	0.573	0.522	0.574	0.607	0.329	0.603	0.672	0.658	0.406
IALNSYHSRNC [IFNGR1_Y397]	0.584	0.383	0.492	0.464	0.525	0.347	0.715	0.417	0.469	0.521	0.469	0.599	0.4	0.917	0.814	0.534
ICGVSYDEYRY [CFTR_Y512_F508C]	1.46	0.733	0.704	0.478	1.01	0.599	1.58	0.637	0.633	1.26	0.463	0.943	1.11	0.751	0.681	1.77
IDFARYWHGND [MMP11_Y162_D166N]	0.918	0.556	0.486	0.508	0.551	0.423	0.835	0.431	0.479	0.564	0.372	0.504	0.345	0.807	0.708	0.525
IFGVSYGEFRF [CFTR_Y512_D513G_YF]	0.941	0.576	0.561	0.383	0.646	0.504	1.09	5.32	4.06	0.99	0.465	0.779	5.39	1.06	1.08	0.705
IFHLSYIHNCE [PDE6B_Y227_L228I_YF]	1.16	0.699	0.71	0.495	0.91	0.526	1.35	0.494	0.577	1.04	0.392	0.745	0.352	0.976	0.856	0.853
IGEGTYRTVFK [CDK5_Y15_G16R]	0.542	0.362	0.432	0.353	0.533	0.317	0.738	0.459	0.532	0.781	0.384	0.638	0.558	0.674	0.614	0.47
IGEVVYQRAVM [GRIN2A_Y502]	0.869	0.883	0.554	0.434	0.595	1.46	0.856	1.14	2.19	0.688	0.513	8.27	1.57	0.752	0.484	0.477
IHETTHNSIMK [ACTA1_Y281_Y281H]	0.452	0.304	0.349	0.425	0.39	0.347	0.469	0.43	0.463	0.471	0.38	0.401	0.262	0.736	0.537	0.43
